The conditions of data set [1]: cited from earlier work.
The subject of another data set is E2F8. In words: Chromatin immunoprecipitation (ChIP) with E2F8 antibody. Type of data set: cell-based, human. As to conditions: APELIN-overexpressing HDLEC. The protocol: Human dermal lymphatic endothelial cells (HDLEC) non transduced or transduced with Apelin Lentivector, were crosslinked for 15 min using 1% formaldehyde directly in the culture medium. 0.125 M of Glycine were then added for 5 min. After two washes with cold PBS, cells were scraped and frozen at −80° C. Cells were lysed to ChIP-IT Express Magnetic Chromatin
Immunoprecipitation kit (Active Motif 53008). Optimal sonication conditions were determined previously in order to obtain DNA fragments of about 500 bp. Cells were sonicated in 350 μl final volume of Shearing buffer specific to the kit, using Diagenode Bioruptor Sonicator (7 cycles, 30 sec ON, 30 sec OFF in a water bath). DNA concentration was determined using a Nanodrop and 25 μg of chromatin were used by reaction. Experiments were then performed according to the manufacturer protocol. 4 μg of E2F8 antibody (Abcam, AB 109596) were used by ChIP reaction. 10 μl of each sample were kept as Input. Reactions were incubated over night at 4° C. A mock sample without antibody was processed similarly. Prior to qPCR, DNA was purified using the Active Motif Chromatin IP DNA purification kit (58002), and eluted in 50 μl of DNase/RNase free water. 2 μl of purified chromatin was used for qPCR. In some experiments, ChIP reactions were supplemented with 10 ng of Drosophila melanogaster chromatin (spike in chromatin, Active motif, 08221011), and 1 μg of an antibody recognizing H2Av, a Drosophila specific histone variant, (spike in antibody, active motif, 61686), as an internal control for ChIP normalization.
HDLEC were seeded in 6-well plates at 100 000 cells/well. After 24 h, cells were transduced with 1 mL of Apelin lentivector diluted in 1 mL of OptiMEM Media in the presence of proteamine sulfate at a final concentration of 5 μg/mL. The Control cells (NT) non transduced with the Apelin Lentivector were processed at the same time and following the same protocol; in this case 2 mL of OptiMEM and 5 μg/mL of proteamine sulfate were added to the cells. The media was replaced after 24 h. […]

Data set [2] concerns Human dermal lymphatic endothelial cells (HDLEC). The data set can be described thus: Cell migration, cell junction and cytoskeleton remodeling. Type of data set: cell-based.
Data set [3] has the same test system. In words: RT-qPCR validation of gene induction. Particulars: RT-qPCR on HDLEC. In kind it is cell-based. The protocol:
Total RNA was prepared using RNeasy kit (Qiagen 74106) according to the supplier's instruction. 1 μg of RNA was retro-transcribed using high-Capacity cDNA Reverse Transcription Kit (Thermo Fisher Scientific, 4368813) containing Multi-Scribe Reverse Transcriptase according to the supplier's instruction. Quantitative real-time PCR was performed using OneGreen FAST qPCR premix (Ozyme, OZYA008) on a StepOne Real-time PCR System (Thermofisher Scientific). All samples were analysed in duplicates. Data was normalized relative to HPRT mRNA levels.

Data set [4] shares this test system. The data set can be described thus: Immunoblotting of AKT, ERK and eNOS phosphorylation. Type of data set: cell-based. As to conditions: conditioned media. The protocol: Human dermal lymphatic endothelial cells (HDLEC) (single donor, juvenile foreskin, Promocell, C-12216, >95% of the cells are CD31 positive and podoplanin positive) were cultured in Endothelial Cell Media MV2 (EGM-MV2, Promocell, C-22121). NIH3T3 were cultured in Dulbecco's modified Eagle's medium (DMEM, Sigma, D6429) supplemented with 10% fetal bovine serum (FBS, Gibco, 10270-06) and 1% penicillin-streptomycin. Endothelial cells were used at passage 3-6 and human fibroblasts were used at passage 4-7. Cells were cultured at 37° C. in a 5% CO2 incubator. Culture medium was changed 3 times a week, and the cells were passaged ⅓. For collecting conditioned media, NIH3T3 were grown in 10 cm dishes, after reaching confluence, medium was removed and the cells were washed once with PBS. NIH3T3 were cultured overnight in 5 mL reduced serum medium optiMEM (Gibco), the medium was then collected and used for experiments. HDLEC were treated with 50% conditioned media/50% MV2-05% FBS.
Cells were scrapped and lysed in RIPA buffer (RIPA 2X, Biotech RB4476) supplemented with phosphatase inhibitor (PhosSTOP Easypack, Roche0490687001) and protease inhibitors (protease inhibitor cocktail, Sigma Aldrich). Lysates were centrifuged at 13500 g for 10 minutes at 4° C. Supernatants were then collected and mix with Laemmli buffer containing dithiothreitol (DTT 1 mM). Protein were resolved on 4-15% SDS-PAGE gels and transferred to nitrocellulose membrane (Trans-Blot Turbo RTA transfer kit, #1704271, Biorad). Membranes were blocked for 1h at room temperature in 5% BSA-TBS-T (TBS-0.1% Tween 20) and probed with primary antibody overnight at 4° C. Antibody used are the following: Phospho AKT: AKT-p ser473 (CS #4060S), AKT: santa cruz H136 (S8312), Phospho ERK: ERK1/2-p (MAPKp42/44) (Thr202/Thr204) (cell signalling #9106), ERK ERK1/2-(MAPKp42/44) (Thr202/Thr204) (cell signalling #9102), Phospho eNOS (cell signalling #9571S), eNOS (cell signalling #5880S), E2F8 (Abcam, AB109596), VEGFR3 (RID system AF349), Phospho-VEGFR3 (Affinity AF3676), CCBE1 (Sigma SAB1402017).
After three washes in TBS-T, membranes were probed with HRP-conjugated secondary antibodies at 1/10000 dilution. Signals were visualized with chemiluminescence detection reagent (Sigma) on a Chemidoc (Biorad) digital acquisition system.
In general terms: In western blotting, separated proteins are transferred to a membrane and probed.

B1: APELIN: bioactive peptide apelin, endogenous ligand of APJ; applied to HDLEC as conditioned media from LV-Apelin transduced NIH3T3 or by transduction (protein, listed as Homo sapiens)
chain: MNLRLCVQALLLLWLSLTAVCGGSLMPLPDGNGLEDGNVRHLVQPRGSRNGPGPWQGGRRKFRRQRPRLSHKGPMPF
For B1, the plasma apelin half-life entry in data set [1] is on record as “less than five minutes”. In the data set on E2F8, the “E2F8 binding on FLT4” value is recorded as “no binding”, the “E2F8 binding to CCBE1 promoter” value was “significantly increased” and the “E2F8 binding to E2F1 transcription factor promoter” value was “induced”. For the same molecule, in data set [2], the endothelial monolayer integrity entry was “no effect”. Besides, in data set [2] (HDLEC), the “cell junction or cytoskeleton remodeling” value was “no effect” and the cell migration entry is reported as “activation of cell migration”. Further, the CCBE1 induction result in data set [3] is listed as “strongly confirmed”. In addition, the eNOS phosphorylation result in data set [4] (HDLEC) is “observed”. Besides, in data set [4] (24 h time course), the “AKT activation (phosphorylation)” value is reported as “stimulated Akt phosphorylation after 1 hour” and the ERK activation entry is on record as “without major effect”. Besides, the “AKT activation (phosphorylation)” value in data set [4] (24 h time course, listed as apelin) is “lesser extent than the phosphorylation induced by VEGF-C”.
